Results: patent US20260266833A1 (AXOIYA, published 2026)
Read-outs that look alike come from different tables or passages of the source. Non-standard residues stand in square brackets, D forms with d. No end group written: not given here. *: point of attachment. Biotin = O=C1N[C@H]2[C@H](CS[C@H]2CCCCC(=O)*)N1; Arg(Me) = CNC(=N)NCCC[C@H](N)C(=O)O; Ahx = NCCCCCC(=O)O

B2: H3K27me3 peptide (peptide)
peptide: KQLATKAARKSAPATGGVK
modifications: Kme3 (trimethyl-lysine) at the 10th residue (KQLATKAARKme3SAPATGGVK); N-terminus biotin + aminohexanoic acid linker, or FITC at the N-terminus for fluorescence polarization
notes: Synthetic peptide (GenScript); One entry is used for the biotinylated and the FITC-labelled form

Assays:
H3K27me3 peptide [1] = target: B2; test: fluorescence polarization, FITC-peptide 0.5 nM
Experimental: (§3) Fluorescence polarization (FP) assays were performed in a 20 μl volume at a constant histone peptide concentration of 0.5 nM. Binding measurements were performed in FP buffer (25 mM HEPES pH 7.5, 150 mM NaCl, 1 mM DTT, 0.01% TritonX-100) by mixing in a 384-well black plate (Corning) 0.5 nM FITC-labeled histone peptides with serial dilutions of wild-type Cbx chromodomains ranging from 200-0.2 μM. For affinity determination of Cbx7.V1 and all Cbx. VDs, chromodomains were serially diluted from 50 μM to 50 nM. Samples were incubated for 30 min at 25° C. prior to data acquisition. […] Dissociation constants were determined using Prismv.9.3 (GraphPad Software Inc) with a one-site total binding model.

H3K27me3 peptide [2] = target: B2; test: ITC, peptide titrated into the chromodomain, 25 C
Experimental: Dissociation constants were determined using the one-site binding model supplied in MicroCal PEAQ-ITC analysis software (version 1.1.0.1262) with the fitted offset control. Data are the average from three independent experiments ±1 SD.

[3] = target: T1, Cbx7.wt chromodomain (tags removed) (human, UniProt O95931 4-75); test: fluorescence polarization, FITC-peptide 0.5 nM
T1 construct: also called Cbx7-chromo
T1 sequence: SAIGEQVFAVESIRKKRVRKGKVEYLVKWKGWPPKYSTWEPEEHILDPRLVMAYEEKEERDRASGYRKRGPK
Experimental: as §3

[4] = target: T1, Cbx7.wt chromodomain (tags removed); test: fluorescence polarization, FITC-peptide 0.5 nM; remark: listed apart in the source
Experimental: as §3
(§4) FP assays was used to measure the affinities of each wild-type Cbx chromodomain (Cbx.wt) and its Cbx. VD version for the H3K9me3 and H3K27me3 peptides (Table 13).

[5] = target: T2, Cbx2.wt chromodomain (tags removed) (human, UniProt Q14781 8-70); test: fluorescence polarization, FITC-peptide 0.5 nM
T2 sequence: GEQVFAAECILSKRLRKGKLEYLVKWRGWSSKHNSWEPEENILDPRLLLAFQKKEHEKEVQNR
Experimental: as §3, §4

[6] = target: Cbx3.wt chromodomain (tags removed) (human, UniProt Q13185 23-81); test: fluorescence polarization
Experimental: as §3, §4

[7] = target: T3, Cbx6.wt chromodomain (tags removed) (human, UniProt O95503 6-69); test: fluorescence polarization
T3 construct: also called Cbx6-chromo
T3 sequence: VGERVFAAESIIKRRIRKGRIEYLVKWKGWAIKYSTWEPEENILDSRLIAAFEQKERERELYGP
Experimental: as §3, §4

[8] = target: T4, Cbx1.wt chromodomain (tags removed) (human, UniProt P83916 17-79); test: fluorescence polarization
T4 construct: also called Cbx1-chromo
Experimental: as §3, §4

[9] = target: Cbx5.wt chromodomain (tags removed) (human, UniProt P45973 17-78); test: fluorescence polarization
Experimental: as §3, §4

H4K20 peptide = H4K20 peptide (N-terminus biotin + aminohexanoic acid linker); test: luciferase-fusion assay on immobilized peptide
Experimental: (§1) For luciferase-based assays, 384-well white plates (PerkinElmer) were coated for 16 h at 4° C. with 4 μg/ml streptavidin (New England Biolabs, N7021S) in TBS pH 8.5 (50 mM Tris-HCl pH 8.5, 150 mM NaCl). Each well was blocked with 60 μl/well of TBS pH 8.5 containing 0.5% BSA (TB buffer) and incubated at 25° C. for 1 h. Plates were washed four times with 90 μl/well of PBS pH 7.4, 0.05% Tween-20 (PT buffer) and incubated with 25 μl/well of biotinylated histone peptides at 5 μg/ml in TB buffer pH 8.5 for 30 min at 25° C. Plates were washed and incubated with Cbx chromodomain-luciferase fusions diluted to 0.1 nM for Cbx. VD or 100 nM for Cbx.wt in TB buffer, 0.05% Tween-20, 1 mM DTT, 5% glycerol (TBT buffer). Plates were incubated for 1 h at 25° C. with gentle shaking, washed six times and luminescence intensity was measured with a Biotek Synergy 5 plate reader (Biotek) using the ONE-Glo™ EX luciferase assay system reagent (Promega). Following background subtraction of the luminescence signal derived from wells coated with streptavidin, the luminescence intensity was normalized to wells with immobilized H3K9me3 peptide.
(§2) To enhance detection sensitivity, each chromodomain was expressed as a fusion to the N-terminus of an engineered firefly luciferase and binding was measured by luminescence intensity.

H3K14Ac = target: T5, H3K14Ac; test: luciferase-fusion assay on immobilized peptide
T5 construct: also called H3K14Ac peptide
T5 peptide: {Biotin-Ahx}-TARKSTGGK(Ac)APRKQLAT
Experimental: as §1, §2

H3R17me1 = target: T6, H3R17me1; test: luciferase-fusion assay on immobilized peptide
T6 construct: also called H3R17me1 peptide
T6 peptide: {Biotin-Ahx}-KSTGGKAP[Arg(Me)]KQLATKAA
Experimental: as §1, §2

H3K9Ac = target: T7, H3K9Ac (Kac at peptide residue 9 (histone H3 K9); N-terminal biotin and aminohexanoic acid linker); test: luciferase-fusion assay on immobilized peptide
T7 construct: also called H3K9Ac peptide
T7 peptide: ARTKQTARKSTGGKAPR
Experimental: as §1, §2

H3K9me1 = target: T8, H3K9me1 (Kme1 at peptide residue 9 (histone H3 K9); N-terminal biotin and aminohexanoic acid linker); test: luciferase-fusion assay on immobilized peptide
T8 construct: also called H3K9Me1 peptide
T8 peptide: ARTKQTARKSTGGKAPR
Experimental: as §1, §2

H4K20me3 = target: T9, H4K20me3 (Kme3 at peptide residue 8 (histone H4 K20); N-terminal biotin and aminohexanoic acid linker); test: luciferase-fusion assay on immobilized peptide
T9 construct: also called H4K20Me3 peptide
Experimental: as §1, §2

H3K27me2 = target: T10, H3K27me2 (Kme2 at peptide residue 10 (histone H3 K27); N-terminal biotin and aminohexanoic acid linker); test: luciferase-fusion assay on immobilized peptide
T10 construct: also called H3K27Me2 peptide
T10 peptide: KQLATKAARKSAPATGGVK
Experimental: as §1, §2

[10] = target: T11, H3K27 peptide (non-methylated) (also: N-terminal biotin + Ahx, or FITC at N-terminus); test: luciferase-fusion assay on immobilized peptide
T11 construct: also called unmethylated H3K27 peptide
T11 peptide: KQLATKAARKSAPATGGVK
Experimental: as §1, §2

H3K9me2 = target: T12, H3K9me2 (Kme2 at peptide residue 9 (histone H3 K9); N-terminal biotin and aminohexanoic acid linker); test: luciferase-fusion assay on immobilized peptide
T12 construct: also called H3K9Me2 peptide
T12 peptide: ARTKQTARKSTGGKAPR
Experimental: as §1, §2

H3K14 = target: T13, H3K14; test: luciferase-fusion assay on immobilized peptide
T13 construct: also called H3K14 peptide (non-modified)
T13 peptide: {Biotin-Ahx}-TARKSTGGKAPRKQLAT
Experimental: as §1, §2

H3K27me1 = target: T14, H3K27me1 (Kme1 at peptide residue 10 (histone H3 K27); N-terminal biotin and aminohexanoic acid linker); test: luciferase-fusion assay on immobilized peptide
T14 construct: also called H3K27Me1 peptide
T14 peptide: KQLATKAARKSAPATGGVK
Experimental: as §1, §2

H3R17 = target: T15, H3R17; test: luciferase-fusion assay on immobilized peptide
T15 construct: also called H3R17 peptide (non-modified)
T15 peptide: {Biotin-Ahx}-KSTGGKAPRKQLATKAA
Experimental: as §1, §2

[11] = target: T16, H3K9 peptide (non-methylated) (also: N-terminal FITC, or biotin + Ahx); test: luciferase-fusion assay on immobilized peptide
T16 construct: also called unmethylated H3K9 peptide
T16 peptide: ARTKQTARKSTGGKAPR
Experimental: as §1, §2

H3K27me3 peptide [12] = target: B2; test: fluorescence polarization
Experimental: as §3, §4

H3K27me3 peptide [13] = target: B2; test: luciferase-fusion assay on immobilized peptide
Experimental: as §1, §2

T4 sequence (P83916 17-79 limits assumed): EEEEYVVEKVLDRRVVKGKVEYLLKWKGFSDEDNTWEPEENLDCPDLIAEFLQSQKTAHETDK
Chain of Cbx5.wt chromodomain (tags removed) (P45973 17-78 limits assumed): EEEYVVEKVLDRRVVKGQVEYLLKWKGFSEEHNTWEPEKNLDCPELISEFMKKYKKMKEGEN
Chain of Cbx3.wt chromodomain (tags removed) (Q13185 23-81 limits assumed): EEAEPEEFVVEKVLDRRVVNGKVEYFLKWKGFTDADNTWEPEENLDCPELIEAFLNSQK

B1: Cbx7.V1 chromodomain (tags removed) (designed binder)
chain: SAIGDDIFAVESIRKKRVRKGKVEYLVKWEGWPLEYSTWEPEEHILDPRLVMAYEEKEERDRASGYRKRGPK
notes: ITC and FP: His6 and Flag tags removed with TEV protease
7.8 µM: Kd (H3K27me3 peptide [2])
4 µM: Kd (H3K27me3 peptide [1])

B2
100 µM: Kd [5]
no binding: binding result [6] | binding result [7] | binding result [8] | binding result [9]
110 µM: Kd [3] | Kd [4]

B3: Cbx8.wt chromodomain-luciferase fusion (other)
chain: MSYYHHHHHHGSDYKDDDDKSSGENLYFQGSGGSGERVFAAEALLKRRIRKGRMEYLVKWKGWSQKYSTWEPEENILDARLLAAFEEREREMELYGP
notes: not shown: engineered YY5 firefly luciferase from Photinus pyralis fused to the C-terminus
no binding (tested: 100 nM): binding result (H4K20 peptide) | binding result (H3K14Ac) | binding result (H3R17me1) | binding result (H3K9Ac) | binding result (H3K9me1) | binding result (H4K20me3) | binding result (H3K27me2) | binding result [10] | binding result (H3K9me2) | binding result (H3K14) | binding result (H3K27me1) | binding result (H3R17) | binding result [11]

B4: Cbx6.VD chromodomain (tags removed) (designed binder)
chain: VGDRVFAAESIIKRRIRKGRIEYLVKWEGWAIKYSTWEPEENILDSRLIAAFEQKERERELYGP
no binding: binding result (H3K27me3 peptide [12])

B5: Cbx6.VD chromodomain-luciferase fusion (designed binder)
chain: MSYYHHHHHHGSDYKDDDDKSSGENLYFQGSGGSVGDRVFAAESIIKRRIRKGRIEYLVKWEGWAIKYSTWEPEENILDSRLIAAFEQKERERELYGP
notes: as for B3
no binding (tested: 0.1 nM): binding result (H3R17me1) | binding result (H3K27me2) | binding result [10] | binding result (H3K14) | binding result (H3K27me1) | binding result (H3R17) | binding result (H3K27me3 peptide [13])
